Data from patent US20250361308A1 (NEUROGENE, published 2025).
Read-outs that look alike come from different tables or passages of the source.

How the values were obtained:
[1] = target: T1, huIL2Rβγ: Human IL-2 R gamma/CD132 Protein, Fc Tag (ILG-H5256) with Human IL-2 R beta/CD122 Protein, His Tag … (human, UniProt P31785 23-254; P14784 27-239); assay: Octet BLI; IL-2Rγ-Fc on anti-human Fc sensors with IL-2Rβ-His in solution, 1:1 steady-state model
T1 construct: IL-2Rγ-Fc sat on the sensor; IL-2Rβ-His was in solution at a concentration equimolar to or greater than the analyte; also called IL-2RBG; not shown: Fc tag of the bought reagent; His tag of the bought reagent
T1 sequence (looked up) 1: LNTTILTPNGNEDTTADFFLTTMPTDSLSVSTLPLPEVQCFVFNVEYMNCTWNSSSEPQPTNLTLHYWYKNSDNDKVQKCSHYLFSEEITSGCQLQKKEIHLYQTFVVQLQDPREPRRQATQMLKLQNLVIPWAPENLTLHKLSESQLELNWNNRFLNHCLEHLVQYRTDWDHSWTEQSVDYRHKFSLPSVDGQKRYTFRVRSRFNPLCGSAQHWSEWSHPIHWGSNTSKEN
T1 sequence (looked up) 2: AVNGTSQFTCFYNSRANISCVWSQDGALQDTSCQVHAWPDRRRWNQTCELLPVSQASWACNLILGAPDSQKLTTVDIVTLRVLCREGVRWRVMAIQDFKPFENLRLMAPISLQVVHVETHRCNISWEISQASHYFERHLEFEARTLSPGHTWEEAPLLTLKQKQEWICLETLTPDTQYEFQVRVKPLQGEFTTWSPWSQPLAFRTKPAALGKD

[2] = target: T2, Human IL-2 R beta/CD122 Protein, Fc Tag (ILB-H5253) (human, UniProt P14784 27-239); assay: Octet BLI; IL-2Rβ-Fc on anti-human Fc sensors, Neo-2/15 variant as analyte, 1:1 steady-state model
T2 construct: Bought protein, captured on anti-human Fc sensors; also called huIL2Rβ; IL-2Rβ; not shown: Fc tag of the bought reagent
T2 sequence (looked up): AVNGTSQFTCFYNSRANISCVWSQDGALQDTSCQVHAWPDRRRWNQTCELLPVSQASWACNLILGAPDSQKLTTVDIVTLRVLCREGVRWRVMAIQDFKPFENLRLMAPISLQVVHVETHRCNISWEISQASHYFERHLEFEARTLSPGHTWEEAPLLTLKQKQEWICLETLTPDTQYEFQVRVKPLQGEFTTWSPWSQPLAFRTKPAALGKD

[3] = target: T1, huIL2Rβγ: Human IL-2 R gamma/CD132 …; assay: Octet BLI; IL-2Rγ-Fc on anti-human Fc sensors with IL-2Rβ-His in solution, 1:1 steady-state model; remark: listed apart in the source
Procedure: (§1) Binding data was collected in the Octet RED96 instrument and processed using the integrated Octet software. […] Anti-Human Fc Capture (AHC) sensors were equilibrated for 90s in 1× Cytiva HBS-EP+ Buffer 10 binding buffer. Sensors were loaded with receptor by mixing with wells containing 0.5 ug/ml aforementioned receptors until a threshold response reached 1.0 nm. Sensors were then baselined in binding buffer for 90s. After baseline measurement, the association kinetics (kon) were monitored by dipping the biosensors in wells containing analyte for 400s. […] Dissociation kinetics (koff) were monitored by dipping the biosensors in separate wells of binding buffer for 800s. The dissociation constant (Kd) was calculated using a 1:1 steady-state binding model with the Octet software.

[4] = target: T2, Human IL-2 R beta/CD122 Protein, Fc Tag …; assay: Octet BLI; IL-2Rβ-Fc on anti-human Fc sensors, Neo-2/15 variant as analyte, 1:1 steady-state model; remark: listed apart in the source
Procedure: as §1

[5] = target: T3, human CD122 and CD132 expressed on a HEK293 cell line (human, UniProt P14784 27-551; P31785 23-369); assay: flow cytometry saturation binding on HEK293 cells expressing human CD122 and CD132; apparent KD
T3 construct: whole, on cells; also called IL-2RBG; IL-2Rβγ on cells
T3 sequence (looked up) 1: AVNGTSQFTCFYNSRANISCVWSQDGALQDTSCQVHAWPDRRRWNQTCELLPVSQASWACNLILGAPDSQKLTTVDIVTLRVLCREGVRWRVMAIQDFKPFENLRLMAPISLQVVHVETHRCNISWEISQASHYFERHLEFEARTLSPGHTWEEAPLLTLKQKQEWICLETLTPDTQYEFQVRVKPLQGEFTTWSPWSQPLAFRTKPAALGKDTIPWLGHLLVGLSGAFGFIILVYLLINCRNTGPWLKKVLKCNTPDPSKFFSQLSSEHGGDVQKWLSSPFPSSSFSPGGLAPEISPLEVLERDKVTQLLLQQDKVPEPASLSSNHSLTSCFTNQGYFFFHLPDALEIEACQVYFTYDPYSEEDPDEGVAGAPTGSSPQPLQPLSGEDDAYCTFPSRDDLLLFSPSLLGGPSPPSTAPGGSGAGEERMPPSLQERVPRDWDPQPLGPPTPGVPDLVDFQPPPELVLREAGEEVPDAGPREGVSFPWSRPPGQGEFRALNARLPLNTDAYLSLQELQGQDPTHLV
T3 sequence (looked up) 2: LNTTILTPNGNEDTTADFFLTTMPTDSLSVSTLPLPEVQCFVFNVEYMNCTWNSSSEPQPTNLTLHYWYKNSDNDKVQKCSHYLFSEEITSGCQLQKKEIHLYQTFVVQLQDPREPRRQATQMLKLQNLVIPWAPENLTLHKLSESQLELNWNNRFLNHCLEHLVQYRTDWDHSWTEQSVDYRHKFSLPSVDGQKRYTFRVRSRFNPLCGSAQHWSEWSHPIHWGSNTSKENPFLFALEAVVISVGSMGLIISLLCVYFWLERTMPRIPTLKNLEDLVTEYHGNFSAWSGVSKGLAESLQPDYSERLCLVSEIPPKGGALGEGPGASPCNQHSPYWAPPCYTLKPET
Procedure: Saturation binding studies were done using a HEK293 cell line expressing human CD122 and CD132. […] Cells were incubated for 30 minutes on ice, then pelleted and washed twice with cold PBS. […] After a 30-minute incubation on ice, the cells were pelleted and washed twice in cold PBS. […] The apparent dissociation constant (KD) was calculated using GraphPad Prism (GraphPad, San Diego, CA).

B1: Neo-2/15_D15A (designed binder)
chain: PKKKIQLHAEHALYAALMILNIVKTNSPPAEEKLEDYAFNFELILEEIARLFESGDQKDEAEKAKRMKEWMKRIKTTASEDEQEEMANAIITILQSWIFS
Kd [1]: 230 nM
Kd [2]: 140 nM

B2: Neo-2/15_H8A (designed binder)
chain: PKKKIQLAAEHALYDALMILNIVKTNSPPAEEKLEDYAFNFELILEEIARLFESGDQKDEAEKAKRMKEWMKRIKTTASEDEQEEMANAIITILQSWIFS
Kd [3]: 11 nM
Kd [4]: 1.4 nM

B3: Neo-2/15_H11A (designed binder)
chain: PKKKIQLHAEAALYDALMILNIVKTNSPPAEEKLEDYAFNFELILEEIARLFESGDQKDEAEKAKRMKEWMKRIKTTASEDEQEEMANAIITILQSWIFS
Kd [3]: 15 nM
Kd [4]: 3.3 nM

B4: Neo-2/15_I44A (designed binder)
chain: PKKKIQLHAEHALYDALMILNIVKTNSPPAEEKLEDYAFNFELALEEIARLFESGDQKDEAEKAKRMKEWMKRIKTTASEDEQEEMANAIITILQSWIFS
Kd [1]: 58 nM
Kd [2]: 84 nM

B5: Neo-2/15_N40A (designed binder)
chain: PKKKIQLHAEHALYDALMILNIVKTNSPPAEEKLEDYAFAFELILEEIARLFESGDQKDEAEKAKRMKEWMKRIKTTASEDEQEEMANAIITILQSWIFS
Kd [1]: 44 nM
Kd [2]: 60 nM

B6: Neo-2/15_Q95A (designed binder)
chain: PKKKIQLHAEHALYDALMILNIVKTNSPPAEEKLEDYAFNFELILEEIARLFESGDQKDEAEKAKRMKEWMKRIKTTASEDEQEEMANAIITILASWIFS
Kd [1]: 190 nM
Kd [2]: 3 nM

B7: Neo-2/15_Y14A (designed binder)
chain: PKKKIQLHAEHALADALMILNIVKTNSPPAEEKLEDYAFNFELILEEIARLFESGDQKDEAEKAKRMKEWMKRIKTTASEDEQEEMANAIITILQSWIFS
Kd [3]: 10 to 20 nM
Kd [4]: 0.7 nM

B8: C terminal anti-CD25 full-length Ab fusion with Neo-2/15_D15S_Q95E (TRA comprising SEQ ID NO: 69 and 70) (other)
heavy: QVQLVQSGAEVKKPGSSVKVSCKASGYTFTSYRMHWVRQAPGQGLEWIGYINPSTGYTEYNQKFKDKATITADESTNTAYMELSSLRSEDTAVYYCARGGGVFDYWGQGTLVTVSSASTKGPSVFPLAPSSKSTSGGTAALGCLVKDYFPEPVTVSWNSGALTSGVHTFPAVLQSSGLYSLSSVVTVPSSSLGTQTYICNVNHKPSNTKVDKKVEPKSCDKTHTCPPCPAPEAAGAPSVFLFPPKPKDTLMISRTPEVTCVVVDVSHEDPEVKFNWYVDGVEVHNAKTKPREEQYNSTYRVVSVLTVLHQDWLNGKEYKCKVSNKALPAPIEKTISKAKGQPREPQVYTLPPSREEMTKNQVSLTCLVKGFYPSDIAVEWESNGQPENNYKTTPPVLDSDGSFFLYSKLTVDKSRWQQGNVFSCSVMHEALHNHYTQKSLSLSPGKGGGGSGGGGSGGGGSPKKKIQLHAEHALYSALMILNIVKTNSPPAEEKLEDYAFNFELILEEIARLFESGDQKDEAEKAKRMKEWMKRIKTTASEDEQEEMANAIITILESWIFS
light: DIQMTQSPSTLSASVGDRVTITCSASSSISYMHWYQQKPGKAPKLLIYTTSNLASGVPARFSGSGSGTEFTLTISSLQPDDFATYYCHQRSTYPLTFGQGTKVEVKRTVAAPSVFIFPPSDEQLKSGTASVVCLLNNFYPREAKVQWKVDNALQSGNSQESVTEQDSKDSTYSLSSTLTLSKADYEKHKVYACEVTHQGLSSPVTKSFNRGEC
notes: also called distal fused TRA
Kd [5]: 131 nM

B9: N terminal anti-CD25 full-length Ab fusion with Neo-2/15_D15S_Q95E (other)
heavy: GSPKKKIQLHAEHALYSALMILNIVKTNSPPAEEKLEDYAFNFELILEEIARLFESGDQKDEAEKAKRMKEWMKRIKTTASEDEQEEMANAIITILESWIFSGGGGSGGGGSGGGGSQVQLVQSGAEVKKPGSSVKVSCKASGYTFTSYRMHWVRQAPGQGLEWIGYINPSTGYTEYNQKFKDKATITADESTNTAYMELSSLRSEDTAVYYCARGGGVFDYWGQGTLVTVSSASTKGPSVFPLAPSSKSTSGGTAALGCLVKDYFPEPVTVSWNSGALTSGVHTFPAVLQSSGLYSLSSVVTVPSSSLGTQTYICNVNHKPSNTKVDKKVEPKSCDKTHTCPPCPAPEAAGAPSVFLFPPKPKDTLMISRTPEVTCVVVDVSHEDPEVKFNWYVDGVEVHNAKTKPREEQYNSTYRVVSVLTVLHQDWLNGKEYKCKVSNKALPAPIEKTISKAKGQPREPQVYTLPPSREEMTKNQVSLTCLVKGFYPSDIAVEWESNGQPENNYKTTPPVLDSDGSFFLYSKLTVDKSRWQQGNVFSCSVMHEALHNHYTQKSLSLSPGK
light: DIQMTQSPSTLSASVGDRVTITCSASSSISYMHWYQQKPGKAPKLLIYTTSNLASGVPARFSGSGSGTEFTLTISSLQPDDFATYYCHQRSTYPLTFGQGTKVEVKRTVAAPSVFIFPPSDEQLKSGTASVVCLLNNFYPREAKVQWKVDNALQSGNSQESVTEQDSKDSTYSLSSTLTLSKADYEKHKVYACEVTHQGLSSPVTKSFNRGEC
Kd [5]: 82 nM

B10: N terminal anti-CD25 full-length Ab fusion with Neo-2/15_N40S_I44S_Q95E (TRA comprising SEQ ID NO: 74 and 70) (other)
heavy: GSPKKKIQLHAEHALYDALMILNIVKTNSPPAEEKLEDYAFSFELSLEEIARLFESGDQKDEAEKAKRMKEWMKRIKTTASEDEQEEMANAIITILESWIFSGGGGSGGGGSGGGGSQVQLVQSGAEVKKPGSSVKVSCKASGYTFTSYRMHWVRQAPGQGLEWIGYINPSTGYTEYNQKFKDKATITADESTNTAYMELSSLRSEDTAVYYCARGGGVFDYWGQGTLVTVSSASTKGPSVFPLAPSSKSTSGGTAALGCLVKDYFPEPVTVSWNSGALTSGVHTFPAVLQSSGLYSLSSVVTVPSSSLGTQTYICNVNHKPSNTKVDKKVEPKSCDKTHTCPPCPAPEAAGAPSVFLFPPKPKDTLMISRTPEVTCVVVDVSHEDPEVKFNWYVDGVEVHNAKTKPREEQYNSTYRVVSVLTVLHQDWLNGKEYKCKVSNKALPAPIEKTISKAKGQPREPQVYTLPPSREEMTKNQVSLTCLVKGFYPSDIAVEWESNGQPENNYKTTPPVLDSDGSFFLYSKLTVDKSRWQQGNVFSCSVMHEALHNHYTQKSLSLSPGK
light: DIQMTQSPSTLSASVGDRVTITCSASSSISYMHWYQQKPGKAPKLLIYTTSNLASGVPARFSGSGSGTEFTLTISSLQPDDFATYYCHQRSTYPLTFGQGTKVEVKRTVAAPSVFIFPPSDEQLKSGTASVVCLLNNFYPREAKVQWKVDNALQSGNSQESVTEQDSKDSTYSLSSTLTLSKADYEKHKVYACEVTHQGLSSPVTKSFNRGEC
notes: also called proximal fused TRA
Kd [5]: 131 nM
